Assay results from patent publication US20220089574A1, “CXCR4 gamete molecular structure and method thereof” (priority 2020, published 2022).
Square brackets hold non-standard residues; d marks the D form. Side chains are listed from the residue outwards. Peptide text beside a SMILES is read from it. * marks the point of attachment. DOTA = O=C(O)CN1CCN(CC(=O)O)CCN(CC(=O)*)CCN(CC(=O)O)CC1; dTyr(3-I) = N[C@H](Cc1ccc(O)c(I)c1)C(=O)O; 2Nal = N[C@@H](Cc1ccc2ccccc2c1)C(=O)O; dNMeOrn = CN[C@H](CCCN)C(=O)O; 4Amb = NCc1ccc(C(=O)O)cc1

Assay: in vivo
Parameters: species or system SCID mice
Conditions: SCID, mouse, iv, total radioactivity, accumulation in the tumor
Description: Embodiment 3: Radionuclide Labeled D-L2(-B)-L1-A is Used for Animal In Vivo imaging PC-3 human […] adenocarcinoma cells were inoculated into the forelimbs of SCID mice at 4×10^6, and about 3 weeks after inoculation, the radionuclide In-111 labeled D-L2(-B)-L1-A was used to adjust with injection water, and 469-527 μCi of radioactive drugs were intravenously injected into the tail vein, and nano SPECT/CT imaging was performed after administration at 1, 4, 24, 48, 72, and 96 hours, respectively. Nano SPECT/CT was used to track the distribution of radiopharmaceuticals in the animal body at each of the time points after administration, and analysis software was used to enter the image into the semi-definite image to obtain the SPECT value from the test substance with known activity at each of the time points. The linear ratio formula was derived between the SPECT calculated value and the actual activity, and the SPECT calculated value was then used at each target organ circled area to obtain the live/volume of each target organ with interpolation or extrapolation linear formula.
For performing the calculation we assume that every 1 mL of injection dosage is 1 g, and the circled area in the mouse body is 1 g per 1 cm^3. Furthermore, since the activity volume of the administered injection and the weight of the experimental mouse are known, each gram of In-111-D-L2(-B)-L1-A's biological distribution ratio (% ID/g) in each organ can be deduced, and will focus on organ tumor, liver, kidney and muscle into the distribution comparison and obtain ratio, as shown in FIG. 10.

Row | Compound | tissue uptake at 1 h [%ID/g] | tissue uptake at 24 h [%ID/g] | tissue uptake at 4 h [%ID/g] | tissue uptake at 48 h [%ID/g] | tissue uptake at 72 h [%ID/g] | tissue uptake at 96 h [%ID/g]
1 | Cc1ccc(CCCC(=O)NCCCC[C@H](NC(=O)CN2CCN(CC(=O)O)CCN(CC(=O)O)CCN(CC(=O)O)CC2)C(=O)NCc2ccc(C(=O)NCCC[C@@H]3C(=O)N[C@@H](CCCNC(=N)N)C(=O)N[C@@H](Cc4ccc5ccccc5c4)C(=O)NCC(=O)N[C@H](Cc4ccc(O)c(I)c4)C(=O)N3C)cc2)cc1 (111In complex, metal not drawn) [I-01(-I-01)-I-01] | 5.47 | > 1 |  |  |  | 
2 | Cc1ccc(CCCC(=O)NCCCC[C@H](NC(=O)CN2CCN(CC(=O)O)CCN(CC(=O)O)CCN(CC(=O)O)CC2)C(=O)NCCCCCC(=O)NCCC[C@@H]2C(=O)N[C@@H](CCCNC(=N)N)C(=O)N[C@@H](Cc3ccc4ccccc4c3)C(=O)NCC(=O)N[C@H](Cc3ccc(O)c(I)c3)C(=O)N2C)cc1 (111In complex, metal not drawn) [I-01(-I-01)-I-17] | 7.87 | > 1 |  |  |  | 
3 | CN1C(=O)[C@@H](Cc2ccc(O)c(I)c2)NC(=O)CNC(=O)[C@H](Cc2ccc3ccccc3c2)NC(=O)[C@H](CCCNC(=N)N)NC(=O)[C@H]1CCCNC(=O)c1ccc(CNC(=O)CN2CCN(CC(=O)O)CCN(CC(=O)O)CCN(CC(=O)O)CC2)cc1 [In-111-pentixather, metal not drawn] (cyclo([dTyr(3-I)][dNMeOrn]([4Amb-DOTA])R[2Nal]G)) | 3.24 |  | 1.54 | 0.5 | 0.24 | 0.25
